# According to US20190010233A1:
# “And” between values parts separate entries of the source, which are not always exact repeats. Equal values may be shown once.
# Experiments:
# [1] = target: full length human PD-L1 on cells (human) (UniProt Q9NZQ7); test: FACS CHOK1-hPD-L1, 0.0003 nM mAb
# [2] = target: full length cyno PD-L1 on cells (cyno) (UniProt G7PSE7); test: FACS CHO-K1-cPD-L1, 0.03 nM mAb
# [3] = target: full length cyno PD-L1 on cells (cyno) (UniProt G7PSE7); test: FACS CHO-K1-cPD-L1, 0.41 nM mAb
# [4] = target: full length cyno PD-L1 on cells (cyno) (UniProt G7PSE7); test: FACS CHO-K1-cPD-L1, 0.1 nM mAb
# [5] = target: full length cyno PD-L1 on cells (cyno) (UniProt G7PSE7); test: FACS CHO-K1-cPD-L1, 100.00 nM mAb
# [6] = target: full length cyno PD-L1 on cells (cyno) (UniProt G7PSE7); test: FACS CHO-K1-cPD-L1, 30 nM mAb
# [7] = target: cyno PD-L1^ECD-hFc protein (cyno) (UniProt G7PSE7); test: ELISA, 0.1 nM mAb
# cyno PD-L1^ECD-hFc protein (cyno), sequence (G7PSE7 entry or part of it limits assumed): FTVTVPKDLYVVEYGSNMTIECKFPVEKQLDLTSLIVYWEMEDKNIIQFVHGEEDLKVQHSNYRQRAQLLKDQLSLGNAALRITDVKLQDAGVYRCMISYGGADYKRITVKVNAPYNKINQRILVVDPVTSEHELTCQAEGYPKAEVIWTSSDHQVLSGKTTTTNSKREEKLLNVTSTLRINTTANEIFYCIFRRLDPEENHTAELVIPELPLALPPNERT
# [8] = target: human PD-L1^ECD-hFc protein (human) (UniProt Q9NZQ7); test: ELISA, 0.1 nM mAb
# human PD-L1^ECD-hFc protein (human), sequence (Q9NZQ7 19-239): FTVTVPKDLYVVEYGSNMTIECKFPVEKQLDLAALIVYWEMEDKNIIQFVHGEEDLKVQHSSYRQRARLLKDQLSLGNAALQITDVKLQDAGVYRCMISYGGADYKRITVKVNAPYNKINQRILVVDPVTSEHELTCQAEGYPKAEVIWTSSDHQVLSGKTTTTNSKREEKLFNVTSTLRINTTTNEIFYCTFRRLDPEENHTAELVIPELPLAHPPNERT
# [9] = target: full length cyno PD-L1 on cells (cyno) (UniProt G7PSE7); test: FACS CHO-K1-cPD-L1, 10 nM mAb
# [10] = target: cyno PD-L1^ECD-hFc protein (cyno) (UniProt G7PSE7); test: ELISA, 10 nM mAb
# [11] = target: human PD-L1^ECD-hFc protein (human) (UniProt Q9NZQ7); test: ELISA, 10 nM mAb
# [12] = target: full length cyno PD-L1 on cells (cyno) (UniProt G7PSE7); test: FACS CHO-K1-cPD-L1, 300 nM mAb
# [13] = target: cyno PD-L1^ECD-hFc protein (cyno) (UniProt G7PSE7); test: ELISA, 3.333 nM mAb
# [14] = target: human PD-L1^ECD-hFc protein (human) (UniProt Q9NZQ7); test: ELISA, 3.333 nM mAb
# [15] = target: full length cyno PD-L1 on cells (cyno) (UniProt G7PSE7); test: FACS CHO-K1-cPD-L1, 3 nM mAb
# [16] = target: full length cyno PD-L1 on cells (cyno) (UniProt G7PSE7); test: FACS CHO-K1-cPD-L1, 0.14 nM mAb
# [17] = target: cyno PD-L1^ECD-hFc protein (cyno) (UniProt G7PSE7); test: ELISA, 30 nM mAb
# [18] = target: human PD-L1^ECD-hFc protein (human) (UniProt Q9NZQ7); test: ELISA, 30 nM mAb
# [19] = target: full length human PD-L1 on cells (human) (UniProt Q9NZQ7); test: FACS CHOK1-hPD-L1, 300 nM mAb
# [20] = target: cyno PD-L1^ECD-hFc protein (cyno) (UniProt G7PSE7); test: ELISA, 0.3 nM mAb
# [21] = target: human PD-L1^ECD-hFc protein (human) (UniProt Q9NZQ7); test: ELISA, 0.3 nM mAb
# [22] = target: full length cyno PD-L1 on cells (cyno) (UniProt G7PSE7); test: FACS CHO-K1-cPD-L1, 0.01 nM mAb
# [23] = target: cyno PD-L1^ECD-hFc protein (cyno) (UniProt G7PSE7); test: ELISA, 0.00003 nM mAb
# [24] = target: human PD-L1^ECD-hFc protein (human) (UniProt Q9NZQ7); test: ELISA, 0.00003 nM mAb
# [25] = target: full length cyno PD-L1 on cells (cyno) (UniProt G7PSE7); test: FACS CHO-K1-cPD-L1, 11.11 nM mAb
# [26] = target: full length human PD-L1 on cells (human) (UniProt Q9NZQ7); test: FACS CHOK1-hPD-L1, 30 nM mAb
# [27] = target: full length cyno PD-L1 on cells (cyno) (UniProt G7PSE7); test: FACS CHO-K1-cPD-L1, 0.001 nM mAb
# [28] = target: cyno PD-L1^ECD-hFc protein (cyno) (UniProt G7PSE7); test: ELISA, 1.111 nM mAb
# [29] = target: human PD-L1^ECD-hFc protein (human) (UniProt Q9NZQ7); test: ELISA, 1.111 nM mAb
# [30] = target: human PD-L1^ECD-hFc protein (human) (UniProt Q9NZQ7); test: ELISA, 0.0003 nM mAb
# [31] = target: cyno PD-L1^ECD-hFc protein (cyno) (UniProt G7PSE7); test: ELISA, 0.370 nM mAb
# [32] = target: human PD-L1^ECD-hFc protein (human) (UniProt Q9NZQ7); test: ELISA, 0.370 nM mAb
# [33] = target: full length cyno PD-L1 on cells (cyno) (UniProt G7PSE7); test: FACS CHO-K1-cPD-L1, 1.23 nM mAb
# [34] = target: full length cyno PD-L1 on cells (cyno) (UniProt G7PSE7); test: FACS CHO-K1-cPD-L1, 0.003 nM mAb
# full length human PD-L1 on cells (human), sequence (Q9NZQ7 19-290 limits assumed): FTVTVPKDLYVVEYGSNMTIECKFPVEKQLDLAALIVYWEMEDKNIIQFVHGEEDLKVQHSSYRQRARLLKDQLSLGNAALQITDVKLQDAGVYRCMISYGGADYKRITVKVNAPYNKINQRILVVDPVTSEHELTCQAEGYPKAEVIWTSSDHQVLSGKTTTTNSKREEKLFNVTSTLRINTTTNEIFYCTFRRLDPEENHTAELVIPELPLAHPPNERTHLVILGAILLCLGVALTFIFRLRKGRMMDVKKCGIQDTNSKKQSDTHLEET
# full length cyno PD-L1 on cells (cyno), sequence (G7PSE7 entry or part of it limits assumed): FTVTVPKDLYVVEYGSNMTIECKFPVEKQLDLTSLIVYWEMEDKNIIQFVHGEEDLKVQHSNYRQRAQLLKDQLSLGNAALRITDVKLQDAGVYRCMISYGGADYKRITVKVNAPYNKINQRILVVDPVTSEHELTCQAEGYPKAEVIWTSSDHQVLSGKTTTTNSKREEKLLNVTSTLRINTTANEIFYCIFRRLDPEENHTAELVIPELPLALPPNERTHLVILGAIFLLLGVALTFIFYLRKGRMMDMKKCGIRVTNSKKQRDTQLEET
substance,measurement,setting,value
IgG control (human IgG) (antibody),Mean fluorescence intensity,[1],2.79
same,Mean fluorescence intensity,[2],3.79
same,Mean fluorescence intensity,[3],2.69
same,Mean fluorescence intensity,[4],2.2
same,Mean fluorescence intensity,[5],3.33 and 8.11
same,Mean fluorescence intensity,[6],4.12
same,OD450 nm,[7],0.0967
same,OD450 nm,[8],0.149
same,Mean fluorescence intensity,[9],1.95
same,OD450 nm,[10],0.15
same,OD450 nm,[11],0.225
same,Mean fluorescence intensity,[12],15.6
same,OD450 nm,[13],0.11
same,OD450 nm,[14],0.11
same,Mean fluorescence intensity,[15],3.91
same,Mean fluorescence intensity,[16],2.74
same,OD450 nm,[17],0.12
same,OD450 nm,[18],0.315
same,Mean fluorescence intensity,[19],4.86
same,OD450 nm,[20],0.28
same,OD450 nm,[21],0.293
same,Mean fluorescence intensity,[22],1.87
same,OD450 nm,[23],0.31
same,OD450 nm,[24],0.296
same,Mean fluorescence intensity,[25],2.93
same,Mean fluorescence intensity,[26],5.73
same,Mean fluorescence intensity,[27],1.9
same,OD450 nm,[28],0.16
same,OD450 nm,[29],0.16
same,OD450 nm,[30],0.338
same,OD450 nm,[31],0.12
same,OD450 nm,[32],0.12
same,Mean fluorescence intensity,[33],2.82
same,Mean fluorescence intensity,[34],3.62
